The target of data set [1] is FANCB-FANCL-FAAP100 complex (human, UniProt Q8NB91;Q9NW38;Q0VG06). Put plainly: SEC.
Data set [2] concerns the molecule itself. Put plainly: negative-stain single-particle EM.

Chain of FANCB-FANCL-FAAP100 complex (Q9NW38 whole entry, chain 2 of 2): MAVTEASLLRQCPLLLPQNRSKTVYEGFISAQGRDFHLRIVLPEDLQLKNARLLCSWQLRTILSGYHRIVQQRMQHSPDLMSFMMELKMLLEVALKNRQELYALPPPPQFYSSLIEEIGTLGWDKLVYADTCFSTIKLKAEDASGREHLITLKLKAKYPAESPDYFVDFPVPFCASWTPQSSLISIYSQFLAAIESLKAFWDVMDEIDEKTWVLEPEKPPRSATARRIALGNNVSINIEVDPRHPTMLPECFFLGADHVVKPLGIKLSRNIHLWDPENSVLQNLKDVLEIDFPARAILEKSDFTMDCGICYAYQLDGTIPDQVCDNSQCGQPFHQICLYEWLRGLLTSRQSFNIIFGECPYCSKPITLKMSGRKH
Chain of FANCB-FANCL-FAAP100 complex (Q0VG06 whole entry, chain 3 of 2): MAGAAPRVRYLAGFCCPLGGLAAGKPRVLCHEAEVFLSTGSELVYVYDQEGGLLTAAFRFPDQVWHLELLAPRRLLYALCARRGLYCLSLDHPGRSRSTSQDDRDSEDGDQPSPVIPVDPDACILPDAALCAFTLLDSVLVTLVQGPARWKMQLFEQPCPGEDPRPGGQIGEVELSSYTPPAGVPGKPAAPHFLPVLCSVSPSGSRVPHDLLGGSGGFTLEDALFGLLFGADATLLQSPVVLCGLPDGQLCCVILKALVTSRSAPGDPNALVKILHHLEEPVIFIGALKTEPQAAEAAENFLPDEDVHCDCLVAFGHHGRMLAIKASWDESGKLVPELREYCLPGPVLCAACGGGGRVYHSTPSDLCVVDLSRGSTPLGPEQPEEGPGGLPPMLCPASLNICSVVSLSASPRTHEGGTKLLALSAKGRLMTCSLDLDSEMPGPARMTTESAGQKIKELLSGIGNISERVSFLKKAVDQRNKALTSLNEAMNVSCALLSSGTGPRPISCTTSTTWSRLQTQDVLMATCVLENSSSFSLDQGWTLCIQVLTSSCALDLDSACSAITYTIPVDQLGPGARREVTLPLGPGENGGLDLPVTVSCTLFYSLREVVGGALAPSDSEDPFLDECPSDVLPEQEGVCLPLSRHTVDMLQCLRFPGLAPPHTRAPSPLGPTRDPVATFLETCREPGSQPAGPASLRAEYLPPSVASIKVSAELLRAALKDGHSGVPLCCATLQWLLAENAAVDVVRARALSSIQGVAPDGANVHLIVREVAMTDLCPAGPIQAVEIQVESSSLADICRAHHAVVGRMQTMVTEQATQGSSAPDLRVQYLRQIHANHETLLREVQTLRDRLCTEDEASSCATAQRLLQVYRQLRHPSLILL

B1: (MBP)FANCC-FANCE-FANCF complex (complex)
chain 1: MAQDSVDLSCDYQFWMQKLSVWDQASTLETQQDTCLHVAQFQEFLRKMYEALKEMDSNTVIERFPTIGQLLAKACWNPFILAYDESQKILIWCLCCLINKEPQNSGQSKLNSWIQGVLSHILSALRFDKEVALFTQGLGYAPIDYYPGLLKNMVLSLASELRENHLNGFNTQRRMAPERVASLSRVCVPLITLTDVDPLVEALLICHGREPQEILQPEFFEAVNEAILLKKISLPMSAVVCLWLRHLPSLEKAMLHLFEKLISSERNCLRRIECFIKDSSLPQAACHPAIFRVVDEMFRCALLETDGALEIIATIQVFTQCFVEALEKASKQLRFALKTYFPYTSPSLAMVLLQDPQDIPRGHWLQTLKHISELLREAVEDQTHGSCGGPFESWFLFIHFGGWAEMVAEQLLMSAAEPPTALLWLLAFYYGPRDGRQQRAQTMVQVKAVLGHLLAMSRSSSLSAQDLQTVAGQGTDTDLRAPAQQLIRHLLLNFLLWAPGGHTIAWDVITLMAHTAEITHEIIGFLDQTLYRWNRLGIESPRSEKLARELLKELRTQV
chain 2: MATPDAGLPGAEGVEPAPWAQLEAPARLLLQALQAGPEGARRGLGVLRALGSRGWEPFDWGRLLEALCREEPVVQGPDGRLELKPLLLRLPRICQRNLMSLLMAVRPSLPESGLLSVLQIAQQDLAPDPDAWLRALGELLRRDLGVGTSMEGASPLSERCQRQLQSLCRGLGLGGRRLKSPQAPDPEEEENRDSQQPGKRRKDSEEEAASPEGKRVPKRLRCWEEEEDHEKERPEHKSLESLADGGSASPIKDQPVMAVKTGEDGSNLDDAKGLAESLELPKAIQDQLPRLQQLLKTLEEGLEGLEDAPPVELQLLHECSPSQMDLLCAQLQLPQLSDLGLLRLCTWLLALSPDLSLSNATVLTRSLFLGRILSLTSSASRLLTTALTSFCAKYTYPVCSALLDPVLQAPGTGPAQTELLCCLVKMESLEPDAQVLMLGQILELPWKEETFLVLQSLLERQVEMTPEKFSVLMEKLCKKGLAATTSMAYAKLMLTVMTKYQANITETQRLGLAMALEPNTTFLRKSLKAALKHLGP
chain 3: MESLLQHLDRFSELLAVSSTTYVSTWDPATVRRALQWARYLRHIHRRFGRHGPIRTALERRLHNQWRQEGGFGRGPVPGLANFQALGHCDVLLSLRLLENRALGDAARYHLVQQLFPGPGVRDADEETLQESLARLARRRSAVHMLRFNGYRENPNLQEDSLMKTQAELLLERLQEVGKAEAERPARFLSSLWERLPQNNFLKVIAVALLQPPLSRRPQEELEPGIHKSPGEGSQVLVHWLLGNSEVFAAFCRALPAGLLTLVTSRHPALSPVYLGLLTDWGQRLHYDLQKGIWVGTESQDVPWEELHNRFQSLCQAPPPLKDKVLTALETCKAQDGDFEVPGLSIWTDLLLALRSGAFRKRQVLGLSAGLSSV
Take B1: the binding result in data set [1] is on record as “binds”.

B2: FANCB (natural protein)
chain: MTSKQAMSSNEQERLLCYNGEVLVFQLSKGNFADKEPTKTPILHVRRMVFDRGTKVFVQKSTGFFTIKEENSHLKIMCCNCVSDFRTGINLPYIVIEKNKKNNVFEYFLLILHSTNKFEMRLSFKLGYEMKDGLRVLNGPLILWRHVKAFFFISSQTGKVVSVSGNFSSIQWAGEIENLGMVLLGLKECCLSEEECTQEPSKSDYAIWNTKFCVYSLESQEVLSDIYIIPPAYSSVVTYVHICATEIIKNQLRISLIALTRKNQLISFQNGTPKNVCQLPFGDPCAVQLMDSGGGNLFFVVSFISNNACAVWKESFQVAAKWEKLSLVLIDDFIGSGTEQVLLLFKDSLNSDCLTSFKITDLGKINYSSEPSDCNEDDLFEDKQENRYLVVPPLETGLKVCFSSFRELRQHLLLKEKIISKSYKALINLVQGKDDNTSSAEEKECLVPLCGEEENSVHILDEKLSDNFQDSEQLVEKIWYRVIDDSLVVGVKTTSSLKLSLNDVTLSLLMDQAHDSRFRLLKCQNRVIKLSTNPFPAPYLMPCEIGLEAKRVTLTPDSKKEESFVCEHPSKKECVQIITAVTSLSPLLTFSKFCCTVLLQIMERESGNCPKDRYVVCGRVFLSLEDLSTGKYLLTFPKKKPIEHMEDLFALLAAFHKSCFQITSPGYALNSMKVWLLEHMKCEIIKEFPEVYFCERPGSFYGTLFTWKQRTPFEGILIIYSRNQTVMFQCLHNLIRILPINCFLKNLKSGSENFLIDNMAFTLEKELVTLSSLSSAIAKHESNFMQRCEVSKGKSSVVAAALSDRRENIHPYRKELQREKKKMLQTNLKVSGALYREITLKVAEVQLKSDFAAQKLSNL
For orientation: stoichiometry N means the number of molecules, sites or subunits per partner or assembly. B2: in data set [2], the “stoichiometry N” value stood at 2.

These data come from PMC5266791 (Cell Reports, 2016).
